Patent US20260098064A1 (PENN STATE RESEARCH FOUNDATION, published 2026)
Where a chain is given by its changes, count along the chain named. Names may count otherwise.

Assays:
[1] = biological target: the molecule itself; assay: S75 gel filtration during purification, no Ca(II) included; self-association
Protocol: The procedures used for expression in E. coli and purification of LanM_013 were identical to those used for Mex-LanM, except that no Ca(II) was included in the gel filtration step. […] The elution volume of the protein from the S75 column was consistent with a monomer. The purification yielded 80 mg LanM_013 from 2 L culture (40 mg/L).

[2] = size exclusion chromatography; 20 µM LanM_012 with 4.0 equiv. Dy^III; conditions: 20 µM protein, 5% glycerol, pH 7.0
[3] = size exclusion chromatography; 20 µM LanM_012 with 4.0 equiv. La^III; conditions: 20 µM protein, 5% glycerol, pH 7.0
[4] = biological target: the molecule itself; assay: SEC-MALS of apo, Ca^II, La^III, Nd^III and Dy^III Mex-LanM (Table 17); self-association
Protocol: In-line size-exclusion chromatography and multi-angle light scattering (SEC-MALS). SEC-MALS experiments were conducted using an Agilent 1260 Infinity II HPLC system equipped with an autosampler and fraction collector, and the Wyatt SEC hydrophilic column had 5 μm silica beads, a pore size of 100 Å, and dimensions of 7.8×300 mm. Wyatt Technology DAWN MALS and Wyatt Optilab Refractive Index (RI) detectors were used for analyzing the molar mass of peaks that eluted from the column. The SEC-MALS system was equilibrated for 5 h with Buffer B. The system was calibrated with bovine serum albumin (BSA, monomer MW: 66 kDa) in the same buffer and normalization and alignment of the MALS and RI detectors were carried out. A volume of 15 μL of each sample was injected at a flow rate of 0.8 mL/min with a chromatogram run time of 25 min. Data were analyzed using the ASTRA software (Wyatt). When SAXS analysis was desired, a second run was performed with 150 μL protein (˜4 mg/mL) injected, and 200 μL fractions of the main peak were collected. BioSAXS data were subsequently collected in triplicate.
Table 17. Characterization of Hans- and Mex-LanM metal complexes using SEC-MALS. The concentrations of the protein samples loaded to the column were: 1.2-1.5 mg/mL for apo- and RE-bound Hans-LanM, 3 mg/mL for Ca^II-bound Hans-LanM, and 3 mg/mL for Mex-LanM. […]

[5] = biological target: the molecule itself; assay: ITC, dimer dissociation model; apo Hans-LanM
Protocol: (§1) Isothermal titration calorimetry. The dissociation constants for the dimers of apo, La^III-bound, and Dy^III-bound Hans-LanM were determined by dilutive additions of a concentrated protein stock, followed using ITC on a TA Instruments Low-volume Auto Affinity ITC. The syringe contained 300 μM protein (apo or 2 equiv. Dy^III bound) or 150 μM or 540 μM (2 equiv. La^III bound), and the cell contained 185 μL of a matched buffer (30 mM MOPS, 100 mM KCl, pH 7.0). Titrations were carried out at 30° C. Titrations consisted of a first 0.2 μL injection followed by 17×2 μL injections, unless otherwise noted, with stirring at 125 rpm and 180 s equilibration time between injections. The heats were fitted using NanoAnalyze using the “Dimer Dissociation” model, yielding the dimer dissociation constant (Kdimer), enthalpy of dissociation (ΔH), and entropy of dissociation (ΔS).

[6] = biological target: the molecule itself; assay: ITC, dimer dissociation model; Dy^III-bound Hans-LanM
Protocol: as §1

[7] = analytical SEC (Superdex S75); Hans-LanM with 3.0 equiv. Dy^III
[8] = analytical SEC (Superdex S75); Hans-LanM with 3.0 equiv. Eu^III
[9] = analytical SEC (Superdex S75); Hans-LanM with 3.0 equiv. Gd^III
[10] = analytical SEC (Superdex S75); Hans-LanM with 3.0 equiv. Ho^III
[11] = analytical SEC (Superdex S75); Hans-LanM with 3.0 equiv. Nd^III
[12] = analytical SEC (Superdex S75); Hans-LanM with 3.0 equiv. Sm^III
[13] = analytical SEC (Superdex S75); Hans-LanM with 3.0 equiv. Tb^III
[14] = biological target: the molecule itself; assay: ITC and SEC-MALS estimate; La^III-bound against Dy^III-bound Hans-LanM
Protocol: (§2) To provide further support for preferential dimerization in the presence of physiologically relevant LREs, RE complexes of Hans-LanM were analyzed using multi-angle light scattering (MALS) (FIG. 2a, FIG. 9). The La^III, Nd^III, and Gd^III complexes have MWs of 22-25 kDa, indicative of dimers, but MWs decrease starting with Tb^III and continue to Dy^III and Ho^III, at ˜15 kDa (Table 17), in agreement with the SEC data. Ca^II-bound Hans-LanM also indicated a MW of 14.7 kDa. […] The Kd for dimerization (Kdimer) of apo-, La^III-bound, and Dy^III-bound Hans-LanM was determined by isothermal titration calorimetry (ITC) (FIG. 10-12, Table 18). […] Thus, La^III favors Hans-LanM's dimerization by >100-fold over Dy^III.
(§3) Isothermal titration calorimetry. The dissociation constants for the dimers of apo, La^III-bound, and Dy^III-bound Hans-LanM were determined by dilutive additions of a concentrated protein stock, followed using ITC on a TA Instruments Low-volume Auto Affinity ITC. The syringe contained 300 μM protein (apo or 2 equiv. Dy^III bound) or 150 μM or 540 μM (2 equiv. La^III bound), and the cell contained 185 μL of a matched buffer (30 mM MOPS, 100 mM KCl, pH 7.0). Titrations were carried out at 30° C. Titrations consisted of a first 0.2 μL injection followed by 17×2 μL injections, unless otherwise noted, with stirring at 125 rpm and 180 s equilibration time between injections. […]

[15] = analytical SEC (Superdex S75); Hans-LanM (590 µM) with 3.0 equiv. La^III
[16] = biological target: the molecule itself; assay: ITC, dimer dissociation model, buffer with 5% glycerol; apo wt Hans-LanM
Protocol: as §1
(§4) Table 21. Thermodynamics parameters for WT and R100K Hans-LanM, obtained by fitting ITC thermograms to the dimer dissociation model. These experiments were carried out similarly to those shown in Table 18, except that 5% glycerol was present in the buffer.

[17] = biological target: the molecule itself; assay: ITC, dimer dissociation model, buffer with 5% glycerol; Dy-bound wt Hans-LanM
Protocol: as §1, §4

[18] = biological target: the molecule itself; assay: ITC, dimer dissociation model, 5% glycerol; apo wt Hans-LanM; unit not printed (Table 18: kcal/mol)
Protocol: as §1, §4

[19] = biological target: the molecule itself; assay: ITC, dimer dissociation model, 5% glycerol; apo wt Hans-LanM; unit not printed (Table 18: cal/mol/K)
Protocol: as §1, §4

[20] = biological target: the molecule itself; assay: ITC, dimer dissociation model, 5% glycerol; Dy-bound wt Hans-LanM; unit not printed (Table 18: kcal/mol)
Protocol: as §1, §4

[21] = biological target: the molecule itself; assay: ITC, dimer dissociation model, 5% glycerol; Dy-bound wt Hans-LanM; unit not printed (Table 18: cal/mol/K)
Protocol: as §1, §4

[22] = biological target: the molecule itself; assay: La^III-bound Hans-LanM; no monomerization seen by ITC; upper limit estimated from SEC-MALS peak concentration (FIG. 12)
Protocol: as §2, §3

[23] = biological target: the molecule itself; assay: ITC dilution of 300 µM protein, dimer dissociation model (Kdimer); apo Hans-LanM; 30 mM MOPS, 100 mM KCl, pH 7.0, 30 C
Protocol: as §1

[24] = biological target: the molecule itself; assay: ITC dilution of 300 µM protein, dimer dissociation model (Kdimer); Hans-LanM with 2 equiv. Dy^III; 30 mM MOPS, 100 mM KCl, pH 7.0, 30 C
Protocol: as §1

[25] = biological target: the molecule itself; assay: ITC, dimer dissociation model, 5% glycerol; apo R100K-Hans-LanM; unit not printed (Table 18: kcal/mol)
Protocol: as §1, §4

[26] = biological target: the molecule itself; assay: ITC, dimer dissociation model, 5% glycerol; apo R100K-Hans-LanM; unit not printed (Table 18: cal/mol/K)
Protocol: as §1, §4

[27] = biological target: the molecule itself; assay: ITC, dimer dissociation model, 5% glycerol; Dy-bound R100K-Hans-LanM; unit not printed (Table 18: kcal/mol)
Protocol: as §1, §4

[28] = biological target: the molecule itself; assay: ITC, dimer dissociation model, 5% glycerol; La-bound R100K-Hans-LanM; unit not printed (Table 18: kcal/mol)
Protocol: as §1, §4

[29] = biological target: the molecule itself; assay: ITC, dimer dissociation model, 5% glycerol; Dy-bound R100K-Hans-LanM; unit not printed (Table 18: cal/mol/K)
Protocol: as §1, §4

[30] = biological target: the molecule itself; assay: ITC, dimer dissociation model, 5% glycerol; La-bound R100K-Hans-LanM; unit not printed (Table 18: cal/mol/K)
Protocol: as §1, §4

[31] = biological target: the molecule itself; assay: ITC, dimer dissociation model, buffer with 5% glycerol; apo R100K-Hans-LanM; ITC dimer dissociation model, 5% glycerol; apo R100K
Protocol: as §1, §4

[32] = biological target: the molecule itself; assay: ITC, dimer dissociation model, buffer with 5% glycerol; Dy-bound R100K-Hans-LanM; ITC dimer dissociation model, 5% glycerol; Dy-bound R100K
Protocol: as §1, §4

[33] = biological target: the molecule itself; assay: ITC, dimer dissociation model, buffer with 5% glycerol; La-bound R100K-Hans-LanM; ITC dimer dissociation model, 5% glycerol; La-bound R100K
Protocol: as §1, §4

[34] = biological target: the molecule itself; assay: ITC, dimer dissociation model, 5% glycerol; apo R100K-Hans-LanM; unit not printed (Table 18: kcal/mol); ITC dimer dissociation model, 5% glycerol; apo R100K
Protocol: as §1, §4

[35] = biological target: the molecule itself; assay: ITC, dimer dissociation model, 5% glycerol; Dy-bound R100K-Hans-LanM; unit not printed (Table 18: kcal/mol); ITC dimer dissociation model, 5% glycerol; Dy-bound R100K
Protocol: as §1, §4

[36] = biological target: the molecule itself; assay: ITC, dimer dissociation model, 5% glycerol; La-bound R100K-Hans-LanM; unit not printed (Table 18: kcal/mol); ITC dimer dissociation model, 5% glycerol; La-bound R100K
Protocol: as §1, §4

B1: LanM_013 (Methyloligella sp. GL2 LanM, expressed construct; signal peptide removed and N-terminal Met added) (other)
chain: MGKAADAIQALDPDKDGTIDLNEAKAGAKAVFEKINPDGDGTLEVKELKGRLTKKELDAADPDNDGTLDMQEYEAVVTKQFELANPDNDGTVDEKELKTKEGKKLLKLIY
notes: Monomer
[1]
  binding result: no binding

B2: LanM_012 (Xanthobacter flavus LanM, with signal peptide removed) (protein)
chain: MLTGKEFLRKYNKDKDSTVEIVEAIDLGTKVFKAINPDKDKTLEAAETKGRLSDEDWAQFNKDGDKTLELDEWLIIVRKRFNDADANKDGKLTEAELDAPAGQQLILLIAK
[2]
  apparent molecular weight (SEC): an apparent molecular weight of ˜29.1 kDa
[3]
  apparent molecular weight (SEC): an apparent molecular weight of ˜29.1 kDa

B3: Mex-LanM (lanmodulin from Methylorubrum extorquens AM1) (other)
chain: APTTTTKVDIAAFDPDKDGTIDLKEALAAGSAAFDKLDPDKDGTLDAKELKGRVSEADLKKLDPDNDGTLDKKEYLAAVEAQFKAANPDNDGTIDARELASPAGSALVNLIR
notes: also called LanM_001; M. extorquens LanM
[4]
  binding result: no binding (tested: 3 mg/mL loaded)

B4: Hans-LanM (lanmodulin from Hansschlegelia quercus, wild type, lacking signal peptide, as expressed in this study) (other)
chain: ASGADALKALNKDNDDSLEIAEVIHAGATTFTAINPDGDTTLESGETKGRLTEKDWARANKDGDQTLEMDEWLKILRTRFKRADANKDGKLTAAELDSKAGQGVLVMIMK
notes: also called LanM_002; wt
[5]
  ΔG of dimer dissociation: 5.5 kcal/mol
  ΔH of dimer dissociation: 25.4 kcal/mol
  ΔS of dimer dissociation: 66 cal/mol/K
[6]
  ΔG of dimer dissociation: 5.9 kcal/mol
  ΔH of dimer dissociation: -5.3 kcal/mol
  ΔS of dimer dissociation: -37 cal/mol/K
[7]
  Apparent MW (SEC, kDa): 20 kDa
[8]
  Apparent MW (SEC, kDa): 25.5 kDa
[9]
  Apparent MW (SEC, kDa): 23 kDa
[10]
  Apparent MW (SEC, kDa): 17.9 kDa
[11]
  Apparent MW (SEC, kDa): 27.8 kDa
[12]
  Apparent MW (SEC, kDa): 26.1 kDa
[13]
  Apparent MW (SEC, kDa): 21.3 kDa
[14]
  fold enhancement of dimerization, La^III versus Dy^III: 100 fold
[15]
  Apparent MW (SEC, kDa): 27.8 kDa
[16]
  Kd: 100 µM
[17]
  Kd: 40 µM
[18]
  ΔG of dimer dissociation: 6.3 kcal/mol
  ΔH of dimer dissociation: 24 kcal/mol
[19]
  ΔS of dimer dissociation: 61 cal/mol/K
[20]
  ΔG of dimer dissociation: 6.1 kcal/mol
  ΔH of dimer dissociation: -5 kcal/mol
[21]
  ΔS of dimer dissociation: -36 cal/mol/K
[22]
  Kd: < 400 nM
[23]
  Kd: 117 µM
[24]
  Kd: 60 µM

B5: R100K-Hans-LanM (other)
chain: B4 chain with R77K
notes: Monomer; also called Hans-LanM(R100K); R100K variant
[25]
  ΔG of dimer dissociation: 6 kcal/mol
[26]
  ΔS of dimer dissociation: 37 cal/mol/K
[27]
  ΔG of dimer dissociation: 5.9 kcal/mol
[28]
  ΔG of dimer dissociation: 7 kcal/mol
[29]
  ΔS of dimer dissociation: -73 cal/mol/K
[30]
  ΔS of dimer dissociation: -84 cal/mol/K
[31]
  Kd: 82 µM
[32]
  Kd: 54 µM
[33]
  Kd: 14 µM
[34]
  ΔH of dimer dissociation: 16 kcal/mol
[35]
  ΔH of dimer dissociation: -16 kcal/mol
[36]
  ΔH of dimer dissociation: -19 kcal/mol
